Reference: patent publication WO2015103549A1 (dated 2015)

What was measured:
[1] = biological target: T1, Sjogren syndrome antigen B (UniProt P05455 1-408); test: Luminex AtheNA Multi-Lyte ANA test
T1 construct: also called SSB; SS-B/La
T1 sequence (looked up): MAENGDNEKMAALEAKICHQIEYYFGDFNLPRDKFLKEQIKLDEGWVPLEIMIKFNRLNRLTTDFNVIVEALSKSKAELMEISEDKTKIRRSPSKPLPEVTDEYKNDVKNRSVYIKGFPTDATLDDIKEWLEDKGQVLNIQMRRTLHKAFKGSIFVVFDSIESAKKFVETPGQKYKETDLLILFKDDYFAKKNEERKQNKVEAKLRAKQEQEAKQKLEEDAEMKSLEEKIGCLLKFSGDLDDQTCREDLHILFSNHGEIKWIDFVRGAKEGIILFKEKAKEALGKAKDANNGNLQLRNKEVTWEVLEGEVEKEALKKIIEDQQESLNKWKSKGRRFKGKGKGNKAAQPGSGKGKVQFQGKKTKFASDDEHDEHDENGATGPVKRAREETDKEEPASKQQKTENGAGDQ

scleroderma 70 = biological target: T2, scleroderma 70 (UniProt P11387 2-765); test: Luminex AtheNA Multi-Lyte ANA test
T2 construct: also called Scl 70
T2 sequence (looked up): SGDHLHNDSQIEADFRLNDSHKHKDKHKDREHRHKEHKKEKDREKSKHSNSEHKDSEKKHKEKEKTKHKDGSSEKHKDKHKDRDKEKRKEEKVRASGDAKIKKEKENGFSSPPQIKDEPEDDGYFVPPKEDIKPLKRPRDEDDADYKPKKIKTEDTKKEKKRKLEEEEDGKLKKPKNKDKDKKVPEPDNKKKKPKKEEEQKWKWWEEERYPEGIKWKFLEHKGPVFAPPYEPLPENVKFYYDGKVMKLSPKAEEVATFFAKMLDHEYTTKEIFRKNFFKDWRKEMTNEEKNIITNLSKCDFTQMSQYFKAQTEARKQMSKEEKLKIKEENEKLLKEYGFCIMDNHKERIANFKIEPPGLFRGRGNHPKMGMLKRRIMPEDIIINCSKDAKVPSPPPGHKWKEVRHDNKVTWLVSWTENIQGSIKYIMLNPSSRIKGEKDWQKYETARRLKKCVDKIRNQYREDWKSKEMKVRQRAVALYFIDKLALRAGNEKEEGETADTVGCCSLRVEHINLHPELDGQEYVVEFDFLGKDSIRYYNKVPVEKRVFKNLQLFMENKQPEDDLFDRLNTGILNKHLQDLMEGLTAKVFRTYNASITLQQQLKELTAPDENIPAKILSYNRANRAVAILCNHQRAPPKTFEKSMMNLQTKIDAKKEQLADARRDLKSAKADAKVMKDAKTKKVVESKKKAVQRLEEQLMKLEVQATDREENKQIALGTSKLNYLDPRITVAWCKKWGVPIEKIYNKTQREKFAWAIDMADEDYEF

centromere B = biological target: T3, centromere B (UniProt P07199 2-599); test: Luminex AtheNA Multi-Lyte ANA test
T3 construct: also called CentrB
T3 sequence (looked up): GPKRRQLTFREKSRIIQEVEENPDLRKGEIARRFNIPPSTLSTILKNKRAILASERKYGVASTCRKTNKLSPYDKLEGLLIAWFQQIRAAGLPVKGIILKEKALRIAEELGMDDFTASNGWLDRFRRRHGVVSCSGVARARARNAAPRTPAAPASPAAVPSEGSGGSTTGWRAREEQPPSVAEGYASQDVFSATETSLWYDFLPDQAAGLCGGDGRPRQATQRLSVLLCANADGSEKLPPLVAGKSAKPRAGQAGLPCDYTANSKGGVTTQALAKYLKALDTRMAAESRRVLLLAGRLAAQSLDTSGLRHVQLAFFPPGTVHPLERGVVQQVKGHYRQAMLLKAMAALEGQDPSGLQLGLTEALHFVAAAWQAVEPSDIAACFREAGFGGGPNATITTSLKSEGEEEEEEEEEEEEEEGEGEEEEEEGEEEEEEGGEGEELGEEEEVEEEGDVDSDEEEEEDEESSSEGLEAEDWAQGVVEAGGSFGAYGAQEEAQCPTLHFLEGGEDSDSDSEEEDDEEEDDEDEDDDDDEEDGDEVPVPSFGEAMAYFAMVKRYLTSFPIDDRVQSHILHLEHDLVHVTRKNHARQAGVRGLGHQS

Jo1 antigen = biological target: T4, Jo1 antigen (UniProt P12081 2-509); test: Luminex AtheNA Multi-Lyte ANA test
T4 sequence (looked up): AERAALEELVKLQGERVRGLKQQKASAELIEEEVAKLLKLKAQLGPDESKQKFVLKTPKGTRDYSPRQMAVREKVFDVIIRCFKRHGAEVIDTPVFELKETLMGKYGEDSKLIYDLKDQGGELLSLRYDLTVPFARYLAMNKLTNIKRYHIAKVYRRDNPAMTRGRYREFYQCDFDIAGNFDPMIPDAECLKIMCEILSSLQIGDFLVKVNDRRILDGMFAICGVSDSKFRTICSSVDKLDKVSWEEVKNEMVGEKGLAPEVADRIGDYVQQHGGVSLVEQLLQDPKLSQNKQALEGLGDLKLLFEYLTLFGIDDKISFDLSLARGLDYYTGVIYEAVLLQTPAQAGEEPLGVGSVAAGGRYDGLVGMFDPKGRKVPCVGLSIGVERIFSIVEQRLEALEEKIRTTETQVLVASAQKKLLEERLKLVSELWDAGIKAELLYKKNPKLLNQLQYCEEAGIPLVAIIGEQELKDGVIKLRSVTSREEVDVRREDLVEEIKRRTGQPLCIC

HIV YU2 gp120 monomer = biological target: T5, HIV YU2 gp120 monomer (HIV-1, UniProt P35961 32-498); test: ELISA, antigen coated at 2 ug/ml
T5 construct: domain: gp120

HIV YU2 gp41 monomer = biological target: T6, HIV YU2 gp41 monomer (HIV-1, UniProt P35961 499-671); test: ELISA, antigen coated at 2 ug/ml
T6 construct: domain: gp41

[2] = biological target: T7, HIV YU2 gp160 extracellular domain (gp140) foldon trimer (HIV-1, UniProt P35961 32-671); test: ELISA, antigen coated at 2 ug/ml
T7 construct: extracellular domain; also called HIVYU2 gp140 foldon trimer; not shown: foldon trimerisation domain

BG505 SOSIP.664 trimer = biological target: T8, BG505 SOSIP.664 trimer (HIV-1); test: SPR, trimer immobilized by anti-histidine capture, Biacore 3000, 25 C (FIG. 2D)
T8 construct: domain: gp120;domain: gp41 ectodomain; also called soluble BG505 SOSIP

B1: 35022 antibody (antibody, V domains shown)
VH: QGQLVQSGAELKKPGASVKISCKTSGYRFNFYHINWIRQTAGRGPEWMGWISPYSGDKNLAPAFQDRVIMTTDTEVPVTSFTSTGAAYMEIRNLKFDDTGTYFCAKGLLRDGSSTWLPYLWGQGTLLTVSS
VL: QSVLTQSASVSGSLGQSVTISCTGPNSVCCSHKSISWYQWPPGRAPTLIIYEDNERAPGISPRFSGYKSYWSAYLTISDLRPEDETTYYCCSYTHNSGCVFGTGTKVSVL
notes: also called 35022 mAb
- binding result [1]: no binding
- binding result (scleroderma 70): no binding
- binding result (centromere B): no binding
- binding result (Jo1 antigen): no binding
- binding result (HIV YU2 gp120 monomer): no binding
- binding result (HIV YU2 gp41 monomer): no binding
- binding result [2]: no binding
- Kd (BG505 SOSIP.664 trimer): 5.6 nM
